Laboratory results taken from patent US20240400715A1 (VIBRANT PHARMA, published 2024).

What was measured:
[1] = target: T1, human CD3ε/δ (ACRO systems, CDD-H52W1) (human, UniProt P07766 23-126; P04234 22-105); assay: serum-stability ELISA, Day 1 vs Day 0
T1 construct: bought recombinant heterodimer; also called human CD3 epsilon/delta; Human CD3ε/CD3δ
Protocol: (§1) The samples to be tested were centrifuged at 4° C. at 12000 rpm for 30 minutes to remove the precipitate. 200 μl of each sample to be tested (0.5 mg/ml) was collected in a 1.5 ml Eppendorf tube. An equal volume of human serum (GEMINI, H2OYOOK) was added, mixed thoroughly, and the mixture was incubated in a 37° C. constant temperature CO₂ incubator. For a total of 10 days, 40 μl samples was aspirated every day and stored at −20° C.
(§2) Enzyme-linked immunosorbent assay (ELISA) was used to test the bispecific antibodies' binding to human CEA and human CD3 epsilon/delta antigen. The steps are as follows: the antigen human CD3ε/δ (ACRO systems, CDD-H52W1) and the recombinant tumor antigen human CEA (CEACAM-5/CD66e, ACRO systems, CE5-H5226) were diluted to 1 μg/ml with PBS, and then added to the 96-well plate at 100 μl per well. The wells were coated overnight at 4° C. After washing 3 times with 0.05% PBST, 200 μl 5% skimmed milk powder was added to each well and incubated at 37° C. for 2 h. After washing 3 times with 0.05% PBST, 100 μl primary antibody sample (10 μg/ml) was added to each well, and incubated at 37° C. for 2 h. After washing 3 times with 0.05% PBST, 100 μl (1:6000) diluted secondary antibody goat anti-human Fc-HRP (sigma, A2170) was added to each well, incubated at room temperature for 1 h. After washing 8 times with 0.05% PBST, 50 μl TMB color developing solution was added to each well, and incubated at room temperature for 10-15 min. 50 μl 1 mM HCl was added to each well to stop the color development. 450 nm Absorbance (OD) was read.
(§3) The binding of antibodies to antigen was calculated according to the following formula: Binding (%)=[(ODdayn−ODb)/(ODday0−ODb)]×100%. ODdayn: experimental well (the protein was stored in the serum for n days); ODday0: control well (the protein was not stored in the serum); ODb: blank well (no primary antibody added).

[2] = target: T1, human CD3ε/δ (ACRO systems, CDD-H52W1); assay: serum-stability ELISA, Day 2 vs Day 0
Protocol: as §1, §2, §3

[3] = target: T1, human CD3ε/δ (ACRO systems, CDD-H52W1); assay: serum-stability ELISA, Day 5 vs Day 0
Protocol: as §1, §2, §3

[4] = target: T1, human CD3ε/δ (ACRO systems, CDD-H52W1); assay: serum-stability ELISA, Day 6 vs Day 0
Protocol: as §1, §2, §3

[5] = target: T1, human CD3ε/δ (ACRO systems, CDD-H52W1); assay: serum-stability ELISA, Day 7 vs Day 0
Protocol: as §1, §2, §3

[6] = target: T1, human CD3ε/δ (ACRO systems, CDD-H52W1); assay: serum-stability ELISA, Day 9 vs Day 0
Protocol: as §1, §2, §3

[7] = target: T1, human CD3ε/δ (ACRO systems, CDD-H52W1); assay: serum-stability ELISA, Day 10 vs Day 0
Protocol: as §1, §2, §3

[8] = target: T1, human CD3ε/δ (ACRO systems, CDD-H52W1); assay: serum-stability ELISA, Day 0 (reference)

B1: 201 (CEA-Fab-Knob-+Hole) (bispecific antibody, human IgG4 S228P, kappa, F234A L235A)
heavy: EVKLLESGGGLVQPKGSLKLSCAASGFTFNTYAMNWVRQAPGKGLEWVARIRSKYNNYATYYADSVKDRFTISRDDSQSILYLQMNNLKTEDTAMYYCVRHGNFGNSYVSWFAYWGQGTLVTVSSASTKGPSVFPLAPCSRSTSESTAALGCLVKDYFPEPVTVSWNSGALTSGVHTFPAVLQSSGLYSLSSVVTVPSSSLGTKTYTCNVDHKPSNTKVDKRVESKYGPPCPPCPAPEAAGGPSVFLFPPKPKDTLMISRTPEVTCVVVDVSQEDPEVQFNWYVDGVEVHNAKTKPREEQFNSTYRVVSVLTVLHQDWLNGKEYKCKVSNKGLPSSIEKTISKAKGQPREPQVYTLPPCQEEMTKNQVSLWCLVKGFYPSDIAVEWESNGQPENNYKTTPPVLDSDGSFFLYSRLTVDKSRWQEGNVFSCSVMHEALHNHYTQKSLSLSL
chain: ESKYGPPCPPCPAPEAAGGPSVFLFPPKPKDTLMISRTPEVTCVVVDVSQEDPEVQFNWYVDGVEVHNAKTKPREEQFNSTYRVVSVLTVLHQDWLNGKEYKCKVSNKGLPSSIEKTISKAKGQPREPQVCTLPPSQEEMTKNQVSLSCAVKGFYPSDIAVEWESNGQPENNYKTTPPVLDSDGSFFLVSRLTVDKSRWQEGNVFSCSVMHEALHNRFTQKSLSLSL
light: QAVVTQESALTTSPGETVTLTCRSSTGAVTTSNYANWVQEKPDHLFTGLIGGTNKRAPGVPARFSGSLIGDKAALTITGAQTEDEAIYFCALWYSNLWVFGGGTKVEIKRTVAAPSVFIFPPSDEQLKSGTASVVCLLNNFYPREAKVQWKVDNALQSGNSQESVTEQDSKDSTYSLSSTLTLSKADYEKHKVYACEVTHQGLSSPVTKSFNRGECGGGGSGGGGSEVQLVESGGGFVQAGESLTLSCTSSTLTFTPYRMAWYRQAPGKQRDLVADISSGDGRTTNYADFAKGRFTISRDNIKNTVFLRMTNLKPEDTAVYYCNTFVSFVGIARSWGQGTQVTVSS
notes: VHH fused after CL of the light chain
A Binding % [1] of 104%, a Binding % [2] of 76.3% and a Binding % [3] of 105% were found for B1 in this work. It also gave a Binding % [4] of 102%, a Binding % [5] of 104% and a Binding % [6] of 101%. For the same binder, the Binding % [7] was 98.8% and the Binding % [8] was 100%.

B2: 202 (Knob+CEA-Fab-Hole) (bispecific antibody, human IgG4 S228P, kappa, F234A L235A)
chain: ESKYGPPCPPCPAPEAAGGPSVFLFPPKPKDTLMISRTPEVTCVVVDVSQEDPEVQFNWYVDGVEVHNAKTKPREEQFNSTYRVVSVLTVLHQDWLNGKEYKCKVSNKGLPSSIEKTISKAKGQPREPQVYTLPPCQEEMTKNQVSLWCLVKGFYPSDIAVEWESNGQPENNYKTTPPVLDSDGSFFLYSRLTVDKSRWQEGNVFSCSVMHEALHNHYTQKSLSLSL
heavy: EVKLLESGGGLVQPKGSLKLSCAASGFTFNTYAMNWVRQAPGKGLEWVARIRSKYNNYATYYADSVKDRFTISRDDSQSILYLQMNNLKTEDTAMYYCVRHGNFGNSYVSWFAYWGQGTLVTVSSASTKGPSVFPLAPCSRSTSESTAALGCLVKDYFPEPVTVSWNSGALTSGVHTFPAVLQSSGLYSLSSVVTVPSSSLGTKTYTCNVDHKPSNTKVDKRVESKYGPPCPPCPAPEAAGGPSVFLFPPKPKDTLMISRTPEVTCVVVDVSQEDPEVQFNWYVDGVEVHNAKTKPREEQFNSTYRVVSVLTVLHQDWLNGKEYKCKVSNKGLPSSIEKTISKAKGQPREPQVCTLPPSQEEMTKNQVSLSCAVKGFYPSDIAVEWESNGQPENNYKTTPPVLDSDGSFFLVSRLTVDKSRWQEGNVFSCSVMHEALHNRFTQKSLSLSL
light: QAVVTQESALTTSPGETVTLTCRSSTGAVTTSNYANWVQEKPDHLFTGLIGGTNKRAPGVPARFSGSLIGDKAALTITGAQTEDEAIYFCALWYSNLWVFGGGTKVEIKRTVAAPSVFIFPPSDEQLKSGTASVVCLLNNFYPREAKVQWKVDNALQSGNSQESVTEQDSKDSTYSLSSTLTLSKADYEKHKVYACEVTHQGLSSPVTKSFNRGECGGGGSGGGGSEVQLVESGGGFVQAGESLTLSCTSSTLTFTPYRMAWYRQAPGKQRDLVADISSGDGRTTNYADFAKGRFTISRDNIKNTVFLRMTNLKPEDTAVYYCNTFVSFVGIARSWGQGTQVTVSS
notes: as for B1
A Binding % [1] of 108%, a Binding % [2] of 86.8% and a Binding % [3] of 110% were found for B2 in this work. It also gave a Binding % [4] of 108%, a Binding % [5] of 108% and a Binding % [6] of 104%. For the same binder, the Binding % [7] was 99.1% and the Binding % [8] was 100%.

B3: 203 (CEA-Fab-Knob-+Hole) (bispecific antibody, human IgG4 S228P, kappa, F234A L235A)
heavy: EVKLLESGGGLVQPKGSLKLSCAASGFTFNTYAMNWVRQAPGKGLEWVARIRSKYNNYATYYADSVKDRFTISRDDSQSILYLQMNNLKTEDTAMYYCVRHGNFGNSYVSWFAYWGQGTLVTVSSASTKGPSVFPLAPCSRSTSESTAALGCLVKDYFPEPVTVSWNSGALTSGVHTFPAVLQSSGLYSLSSVVTVPSSSLGTKTYTCNVDHKPSNTKVDKRVESKYGPPCPPCPAPEAAGGPSVFLFPPKPKDTLMISRTPEVTCVVVDVSQEDPEVQFNWYVDGVEVHNAKTKPREEQFNSTYRVVSVLTVLHQDWLNGKEYKCKVSNKGLPSSIEKTISKAKGQPREPQVYTLPPCQEEMTKNQVSLWCLVKGFYPSDIAVEWESNGQPENNYKTTPPVLDSDGSFFLYSRLTVDKSRWQEGNVFSCSVMHEALHNHYTQKSLSLSL
chain: ESKYGPPCPPCPAPEAAGGPSVFLFPPKPKDTLMISRTPEVTCVVVDVSQEDPEVQFNWYVDGVEVHNAKTKPREEQFNSTYRVVSVLTVLHQDWLNGKEYKCKVSNKGLPSSIEKTISKAKGQPREPQVCTLPPSQEEMTKNQVSLSCAVKGFYPSDIAVEWESNGQPENNYKTTPPVLDSDGSFFLVSRLTVDKSRWQEGNVFSCSVMHEALHNRFTQKSLSLSL
light: EVQLVESGGGFVQAGESLTLSCTSSTLTFTPYRMAWYRQAPGKQRDLVADISSGDGRTTNYADFAKGRFTISRDNIKNTVFLRMTNLKPEDTAVYYCNTFVSFVGIARSWGQGTQVTVSSGGGGSGGGGSQAVVTQESALTTSPGETVTLTCRSSTGAVTTSNYANWVQEKPDHLFTGLIGGTNKRAPGVPARFSGSLIGDKAALTITGAQTEDEAIYFCALWYSNLWVFGGGTKVEIKRTVAAPSVFIFPPSDEQLKSGTASVVCLLNNFYPREAKVQWKVDNALQSGNSQESVTEQDSKDSTYSLSSTLTLSKADYEKHKVYACEVTHQGLSSPVTKSFNRGEC
notes: VHH fused before VL of the light chain
A Binding % [1] of 103%, a Binding % [2] of 85.3% and a Binding % [3] of 102% were found for B3 in this work. The Binding % [4] was 101%, the Binding % [5] was 106% and the Binding % [6] was 103%. For the same binder, the Binding % [7] was 101% and the Binding % [8] was 100%.

B4: 204 (Knob+CEA-Fab-Hole) (bispecific antibody, human IgG4 S228P, kappa, F234A L235A)
chain: ESKYGPPCPPCPAPEAAGGPSVFLFPPKPKDTLMISRTPEVTCVVVDVSQEDPEVQFNWYVDGVEVHNAKTKPREEQFNSTYRVVSVLTVLHQDWLNGKEYKCKVSNKGLPSSIEKTISKAKGQPREPQVYTLPPCQEEMTKNQVSLWCLVKGFYPSDIAVEWESNGQPENNYKTTPPVLDSDGSFFLYSRLTVDKSRWQEGNVFSCSVMHEALHNHYTQKSLSLSL
heavy: EVKLLESGGGLVQPKGSLKLSCAASGFTFNTYAMNWVRQAPGKGLEWVARIRSKYNNYATYYADSVKDRFTISRDDSQSILYLQMNNLKTEDTAMYYCVRHGNFGNSYVSWFAYWGQGTLVTVSSASTKGPSVFPLAPCSRSTSESTAALGCLVKDYFPEPVTVSWNSGALTSGVHTFPAVLQSSGLYSLSSVVTVPSSSLGTKTYTCNVDHKPSNTKVDKRVESKYGPPCPPCPAPEAAGGPSVFLFPPKPKDTLMISRTPEVTCVVVDVSQEDPEVQFNWYVDGVEVHNAKTKPREEQFNSTYRVVSVLTVLHQDWLNGKEYKCKVSNKGLPSSIEKTISKAKGQPREPQVCTLPPSQEEMTKNQVSLSCAVKGFYPSDIAVEWESNGQPENNYKTTPPVLDSDGSFFLVSRLTVDKSRWQEGNVFSCSVMHEALHNRFTQKSLSLSL
light: EVQLVESGGGFVQAGESLTLSCTSSTLTFTPYRMAWYRQAPGKQRDLVADISSGDGRTTNYADFAKGRFTISRDNIKNTVFLRMTNLKPEDTAVYYCNTFVSFVGIARSWGQGTQVTVSSGGGGSGGGGSQAVVTQESALTTSPGETVTLTCRSSTGAVTTSNYANWVQEKPDHLFTGLIGGTNKRAPGVPARFSGSLIGDKAALTITGAQTEDEAIYFCALWYSNLWVFGGGTKVEIKRTVAAPSVFIFPPSDEQLKSGTASVVCLLNNFYPREAKVQWKVDNALQSGNSQESVTEQDSKDSTYSLSSTLTLSKADYEKHKVYACEVTHQGLSSPVTKSFNRGEC
notes: as for B3
A Binding % [1] of 105%, a Binding % [2] of 102% and a Binding % [3] of 99.8% were found for B4 in this work. It also gave a Binding % [4] of 103%, a Binding % [5] of 103% and a Binding % [6] of 105%. For the same binder, the Binding % [7] was 99.4% and the Binding % [8] was 100%.
